The nature of the series: yeast display, Sf9 membrane polyspecificity reagent, FACS + sequencing; frameworks hold sequencing errors. The method in brief:
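A synthetic nanobody library was expressed on Saccharomyces cerevisiae BJ5465 by galactose induction for 36–48 hours. The library was stained for 1 hour at 4 °C with 10% biotinylated, detergent-solubilized Sf9 membrane reagent and enriched with streptavidin microbeads before FACS. Low and high (top ~1%) gates were set on anti-HA fluorescence for expression and streptavidin fluorescence for reagent binding, and each polyreactivity label reflects the gate of origin.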
Take “QVQLVESGGGLVQAGGSLRLSCAASGSIIFGYGMGWYRQAPGKERELVATITTSGGTYYADSVKGRFTISRDNAKNSVYLQMNSLKPEDTAVYYCAATAAALDGNTIMYYWGQGTQVTVSS”: the “polyreactivity (PSR sort gate)” value is recorded as “low polyreactivity”.

For the sequence “QVQLVESGGGLVQAGGSLRLSCAASGSIIFLYAMGWYRQAPGKERELVASISTSGTTITYYADSVKGRFTISRDNAKNTVYLQMNSLKPEDTAVYYCAADTLYYPYDYWGQGTQVTVSS”, the “polyreactivity (PSR sort gate)” value is recorded as “low polyreactivity”.

Regarding “QVQLVESGGGLVQAGGSLRLSCAASGSIIGDNAMGWYRPAPGKERELVAAITGGDSTYYADSVKGRFTISRDNAKNTVYLQMNSLKPEDTAVYYCNADRFRGRTVDGDYWGQGTQVTVSS”, the “polyreactivity (PSR sort gate)” value is “low polyreactivity”.

With “QVQLVESGGGLVQAGGSLRLSCAASGSIIGYYAMGWYRQAPGKDRELVAAISWSDGSTYYAVSVKGRFTISRDNAKNTVFLQMNSLKPEVTAVYYCAARFTPYITSDDGHYDYWGQGTQVTVSA”, the “polyreactivity (PSR sort gate)” value is given as “low polyreactivity”.

Turning to “QVQLVESGGGLVQAGGSLRLSCAASGSIIGYYAMGWYRQAPGKERELVAAITASGGSTYYADSVKGRFTISRDNAKNTVYLQMNSLKPEDTAVYHCAADRIGGPGSYLYDYWGQGTQVTVSS”, the “polyreactivity (PSR sort gate)” value was “low polyreactivity”.

Regarding “QVQLVESGGGLVQAGGSLRLSCAASGSIIGYYAMGWYRQAPGKERELVAAITASGGSTYYADSVKGRFTISRDNAKNTVYLQMNSLKPEDTAVYYCAAGTHTDYGRYYYWGQGTQVTVSS”, the “polyreactivity (PSR sort gate)” value is on record as “low polyreactivity”.

Turning to “QVQLVESGGGLVQAGGSLRLSCAASGSIILVYAMGWYRQAPGKERELVAGINSSGTSTYADSVKGRFTISRDNAKNTVYLQMNSLKPEDTAVYYCATPGIYYEMDYWGQGTQVTVSS”, the “polyreactivity (PSR sort gate)” value is “low polyreactivity”.

As for “QVQLVESGGGLVQAGGSLRLSCAASGSIIPYYVMGWYRQAPGKERELVAAITSGGSTYYADSVKGRFTISRDNAKNTVYLQMNSLKPEDTAVYYCAVRWYPLYAPYWRDYWGQGTQVTVSS”, the “polyreactivity (PSR sort gate)” value is “high polyreactivity”.

For the sequence “QVQLVESGGGLVQAGGSLRLSCAASGSIIRQNAMGWYRQAPGKERELVAAISFSGTSTYYADSVKGRFTISRDNAKNTVYLQMNSLKPEDTAVYYCAVDNISYWAVENDYWGQGTQVTVSS”, the “polyreactivity (PSR sort gate)” value is recorded as “low polyreactivity”.

As to “QVQLVESGGGLVQAGGSLRLSCAASGSIIRRYAMGWYRPAPGKERELVAAISSGGSTYYADSVKGRFTISRDNAKNTVYLQMNSLKPEDTAVYYCAALYYQITTTHYLHLHYDYWGEGTQVTVSS”, the “polyreactivity (PSR sort gate)” value is given as “low polyreactivity”.

Consider “QVQLVESGGGLVQAGGSLRLSCAASGSIIRWNAMGWYRQAPGKERELVAAISYSGGSTYYADSVKGRFTISRDNAKNTVYLQMNSLKPEDTAVYYCAKEYIVGFYLVFNRFDYWGQGTQVTVSS”, for which the “polyreactivity (PSR sort gate)” value is listed as “low polyreactivity”.

“QVQLVESGGGLVQAGGSLRLSCAASGSIIRWYTMAWYRQAPGKESEFVAAITRSGGSTYYADSVKVRFTISRDNAKNTVYLQMNSLKPEDTAVYYCARYANYDKRYDYWGQGTQVTVSS”: the “polyreactivity (PSR sort gate)” value is “high polyreactivity”.

For “QVQLVESGGGLVQAGGSLRLSCAASGSIISSYAMGWYRKAPGKETELLAVITRSGGSTYYADSVKGRFTISRDNAKNTVYLQMKSLKPVDTAVYYCNAQPTRIKLPSYDYWGQGTQVTVST”, the “polyreactivity (PSR sort gate)” value was “high polyreactivity”.

As for “QVQLVESGGGLVQAGGSLRLSCAASGSIISSYAMGWYRQAPGKEREFVAAISSSGDSTYADSVKGRFTISRDNAKNTVYVQMNSLKPEDTAVFYCAVGGAGSDDYWGQGSQVTVSS”, the “polyreactivity (PSR sort gate)” value is on record as “low polyreactivity”.

As to “QVQLVESGGGLVQAGGSLRLSCAASGSIISYNTMGWYRQAPGKEREFVASIRRRGGSTYYADSVKGRFTISRDNAKNTVYLQMNSLKPEDTAGYYCAKANPHYVISDGVYHPRGGYWGHGTQVTVSS”, the “polyreactivity (PSR sort gate)” value was “low polyreactivity”.

In the case of “QVQLVESGGGLVQAGGSLRLSCAASGSIITPYAMGWYRQAPGKERELVAAISGRGGSTYYADSVKGRFTISRDNAKNTVYLQMNSLKPEDTAVFFCAAKRSGGQGQGYGYWGQGTQVTVSS”, the “polyreactivity (PSR sort gate)” value is given as “high polyreactivity”.

For the sequence “QVQLVESGGGLVQAGGSLRLSCAASGSIITVNAMGWYRQAPGKEREFVAGITSIGGRTYYADSVKGRFTISRDNAKNTDYLQMNSLKPEDTAVYDCNKRTYRARYDYWGQGTQVTVSS”, the “polyreactivity (PSR sort gate)” value was “high polyreactivity”.

With “QVQLVESGGGLVQAGGSLRLSCAASGSIIWRNAMGWYSQAPGKERELVAAISYSGGSTYYADSVKGRFTISRDNAKNTVDLQMNSLKPEDTAVYYCAADYTEVLEYDYWGQGTQVTVSS”, the “polyreactivity (PSR sort gate)” value is given as “low polyreactivity”.

As to “QVQLVESGGGLVQAGGSLRLSCAASGSIIWYYAMGWYRQAPGKERELVAAISISGSTYYADSVKGRFTISRDNAKNTVYLQMNSLKPEDTAVYYCAARKFFWRSNYDYWGQGTQVTVSS”, the “polyreactivity (PSR sort gate)” value is given as “low polyreactivity”.

“QVQLVESGGGLVQAGGSLRLSCAASGSIIYNYAMGWYRQAPGKERELVAAINRSGGITYYADSVKGRFTISRDNAKNPVYLQMNSLKPEDTAVYYCAADRSFGHHYWYTGKRYDYWGQGTQVTVST”: the “polyreactivity (PSR sort gate)” value is “low polyreactivity”.

As for “QVQLVESGGGLVQAGGSLRLSCAASGSIIYTYAMGWYRQAPGKVRELVAAITGSDNTNYADSVKGRFTISRDNAKNTVYLQMNSLNPEDTAVYYCAADFPWSTKSWHPDSGDSWGQGTQVTVSS”, the “polyreactivity (PSR sort gate)” value was “low polyreactivity”.

For “QVQLVESGGGLVQAGGSLRLSCAASGSILADYAMGWYRQGPGKERELVAGISSGGSTNYADSVKGRFTITGDNAKNTVSLQMNSLKPEDTAVYYCNADQDFLFIGYLFDYWGQGTQVTVSS”, the “polyreactivity (PSR sort gate)” value was “low polyreactivity”.

“QVQLVESGGGLVQAGGSLRLSCAASGSILALYTMGVYRQAPGKERELVASISSGGRTNYADSVKGRFTISRDNAKNTVYLQMNSLKPEDTAVYYCARSRLGRAYGRYDYWGQGTQVTVSS”: the “polyreactivity (PSR sort gate)” value is “low polyreactivity”.

On to “QVQLVESGGGLVQAGGSLRLSCAASGSILARYAMGWYRQAPGKERQLVAAISYNGCSTYYADSVKGRFTISRDNAKNTVYLQMNSLKPEDTAVYYCAKAYDTTLTYNYWGQGTQVTVSS”, for which the “polyreactivity (PSR sort gate)” value was “low polyreactivity”.

For the sequence “QVQLVESGGGLVQAGGSLRLSCAASGSILDGYDMGRYRQAPGKERDLDAAISTNSDRTYYADSVKGRFTISRDNAKNTVYLQMNSLKPEDTAVYYCNARKRRRAGYPYDYWGQGTQVTVSS”, the “polyreactivity (PSR sort gate)” value is on record as “high polyreactivity”.

“QVQLVESGGGLVQAGGSLRLSCAASGSILDIYAMGLYRQAPGKERELVAGISTSGGSTYYADSVMGRFTFSRDNAKITVYLQMNSLKPEDTAVYYCAKDYGYQGHTSTLYWAYLEYDFWGQVTQVTVSS”: the “polyreactivity (PSR sort gate)” value is “low polyreactivity”.

For the sequence “QVQLVESGGGLVQAGGSLRLSCAASGSILDLNAMGWYRQAPGKERELVAAISYSGDSTYYADSVKGRFTISRDNAKNTVYLQMNSLKPEDTAVYYCAAEVYGAVFDYWGQGTQVTVSS”, the “polyreactivity (PSR sort gate)” value was “low polyreactivity”.

For the sequence “QVQLVESGGGLVQAGGSLRLSCAASGSILDQNTMGWYRQAPGKERELVAAITGSGGITYYADSVKGRFTISRDNAKNTVYLQMNSLKPEDTAVYYCATRTWRAYRKYNYWGQGTQVTVSS”, the “polyreactivity (PSR sort gate)” value is “high polyreactivity”.

On to “QVQLVESGGGLVQAGGSLRLSCAASGSILDSNAMGWYRQAPGKERELVAAITSGGSTYYADSVKGRFTISRDNAKNTVYLQMNSLKPEETAVYYCAAAYLGYGAVQPSYEGGYWGQGTQVTVSS”, for which the “polyreactivity (PSR sort gate)” value is reported as “low polyreactivity”.

Regarding “QVQLVESGGGLVQAGGSLRLSCAASGSILDSYAMGWDRQAPGKERELVAASTRSGVRTYYADSVKGRFTISRDNAKNTVYLQMNSLKPEDTAVYYCAARVTRYRDLNYWGQGTQVTVSS”, the “polyreactivity (PSR sort gate)” value is recorded as “high polyreactivity”.

“QVQLVESGGGLVQAGGSLRLSCAASGSILDYYVMGWYSQAPGKERELVAAIRGGGSTYYADSVKARFTISRDNAKNTVYLQMNSLKPEDTAVYYCAKDSQTARDFDYWGQGTQVTVSS”: the “polyreactivity (PSR sort gate)” value is “low polyreactivity”.

“QVQLVESGGGLVQAGGSLRLSCAASGSILFGNAMGWYRQAPGKERELVAAITVSGGSTYYADSVKGRFTISRDNAKNTVYLQMNSLKPEDTAVYYCAAGGWWHYRPQSYSGPFDYWGQGTQVTVSS”: the “polyreactivity (PSR sort gate)” value was “low polyreactivity”.

Turning to “QVQLVESGGGLVQAGGSLRLSCAASGSILFTNAMGWYRQAPGKERELVAAISSGGSTYYADSVKGRFTISRDNAKNTVYLQMNSLKPEDSAVYYCAADHLNVGREYVEYDYWGQGTQVTVSS”, the “polyreactivity (PSR sort gate)” value is “low polyreactivity”.

With “QVQLVESGGGLVQAGGSLRLSCAASGSILFTNAMGWYRQAPGKERELVAAISSGGSTYYADSVKGRFTISRDNAKNTVYLQMNSLKPEDTAVYYCAADQLNVGREYVEYDFWGQGTQVTVSS”, the “polyreactivity (PSR sort gate)” value is “low polyreactivity”.

As to “QVQLVESGGGLVQAGGSLRLSCAASGSILGANAMGWYRQAPGKERELVAAISYRGGSTYYADSVKGRFTISRDNAKNTVYLQMNSLKPEDTAVYYCAAVVPTGYDYWGQGTQVTVSS”, the “polyreactivity (PSR sort gate)” value is given as “low polyreactivity”.

On to “QVQLVESGGGLVQAGGSLRLSCAASGSILGDNAMAWYRQAPGKERELVAAISYRGGSTYADSVKGRFTISRANAKNTVYLQMNSLKPEDTAVYYCNKTDIDDSQYREYEYWGQGTQVTVSS”, for which the “polyreactivity (PSR sort gate)” value is listed as “low polyreactivity”.

For “QVQLVESGGGLVQAGGSLRLSCAASGSILGDYGMGWYRQAPGKERELVAAITWNGDSTYYADSVKGRFTISRDNAKNTVYLQMNSLKPEDTAVYYCAADLQDYKYYPWYGYWGQGTQVTVSS”, the “polyreactivity (PSR sort gate)” value is reported as “low polyreactivity”.

For “QVQLVESGGGLVQAGGSLRLSCAASGSILGDYGMGWYRQAPGKEREVVAAITWNGDSTYYADSVKGRFTISRDNAKNTVYLQMNSLKPEDTAVYYCAADLQDYKYYPWYGYWGQGTQVTVSS”, the “polyreactivity (PSR sort gate)” value is given as “low polyreactivity”.

For “QVQLVESGGGLVQAGGSLRLSCAASGSILGGNAMGWYRQAPGKERELVAAITFSGGGTYYADSVKGRFTISRDNAKNTVYLQMNRLKPEDTAVYYCNAFGPDYYHVYPAEDYWGQGTQVTVSS”, the “polyreactivity (PSR sort gate)” value is on record as “low polyreactivity”.

Turning to “QVQLVESGGGLVQAGGSLRLSCAASGSILGGNSMGWYRQATGKERVLVAAITFSGGGTYYADSVKGRFTISRDNAKKTVYLQMNSLKPEDSAVYYCAADKDGYTYEFDYWGQGTQVTVSS”, the “polyreactivity (PSR sort gate)” value is “low polyreactivity”.

Values taken from the nanobody polyreactivity screen of Harvey et al. (2022).
